In patent US20120207760A1:

B1: TCN-539 (5056_A08) (antibody, V domains shown)
VH: QVQLVESGGGVVQPGRSLRLSCAASEITFITYAMHWVRQAPGKGLEWVALISDDGSNKFYADSVKGRFTISRDNSKNTLYLQMNSLRAEDTAAYYCAREGVYFDSGTYRGYFDYWGQETLVTVSS
VL: EIVLTQSPATLSLSPGERATLSCRASQSVSSYLAWYQQKPGQAPRLLIYDASNRATGIPARFSGSGSGTDFTLTISSLEPEDFAVYYCQQRSHWPPITFGQGTRLEIK
B2: TCN-542 (5079_A16) (antibody, V domains shown)
VH: QVQLQESGPGLVKPSQTLSLTCTVSGGSISSGNYYWNWVRQHPGKGLEWIGYIYYRGSTFYNPSLKSRVTISIDTSKNQFSLRLSSVTAADTAVYYCAKDTRSSLDNYQYGMDVWGQGTTVTVSS
VL: QTVVTQEPSLTVSPGGTVTLTCASSTGAVTSSYFPNWFQQKPGQAPRPLIYSTTIRHSWTPARFSGSLLGGKAALTLSGVQPEDEADYYCLLYSGGDPVAFGGGTKLTVL
B3: TCN-533 (5256_A17) (antibody, V domains shown)
VH: QVQLVQSGADVKKPGSSVTVSCKASGGSFSNYGINWVRQAPGQGLEWMGGIIPLINAPNYAPKFQGRVTITADMFSNIVSLQLTSLRTDDTAVYYCARRKMTTAIDYWGQGTLVTVSS
VL: QPVLSQPPSASASLGASVTLTCTLSSGFDNYQVAWYQQRPGKGPRFVMRVGNGGNVASKGDGIPDRFSVSGSGLNRYLTIKNIQEDDESDYYCGADHGSGNNFVSPYVFGGGTKLTVL
B4: TCN-551 (5243_D01) (antibody, V domains shown)
VH: EVQLVQSGSEVKKPGESLKISCKGSGYSFSNYWIGWVRHMPGKGLEWMGIIYPGDSDTRYSPSFQGQVTMSADKSSSTVYLQWSSLKASDTAIYYCARRGGHSFGYGSGGDTHSEFDSWGQGTLVTVSS
VL: QSVLTQSPSVSAAPGQKVTISCSGSDSNIGDYFVCWYQHLPGKPPQLLIYENNKRPSGIPDRFSGSKSGTSATLGITGIQTGDEADYYCATWDGSLSAWVFGGGTKLTVL

How the values were obtained:
Conditions in all cases: remark: other sources report otherwise
[1] = target: recombinant soluble homotrimeric HA of A/Common magpie/Hong Kong/5052/07 - H5N1 (Influenza A virus A/common magpie/Hong Kong/5052/2007 (H5N1)); experiment: micro-array; captured IgG, V5-tagged trimeric HA
[2] = target: recombinant soluble homotrimeric HA of A/common magpie/Hong Kong/5052/07 (H5N1) (Influenza A virus A/common magpie/Hong Kong/5052/07 (H5N1)); experiment: microarray, BCC supernatant IgG, trimeric HA
[3] = target: Hemagglutinin of influenza A/Japan/305/57 (H2N2), on inactivated whole virions (Influenza A virus A/Japan/305/1957 (H2N2)), P03451; experiment: ELISA, B cell culture supernatant on inactivated whole virions

| Binder | Trimeric HA Binding: RLU [1] [RLU] | also measured |
| --- | --- | --- |
| B1 | 1440 |  |
| B2 | 1670 |  |
| B3 |  | Trimeric HA Binding: RLU [2]: 44500 RLU |
| B4 |  | OD450 [3]: 0.19 OD450 |
